Measurements reported in patent publication US20250163116A1, “NEW METHOD TO TREAT INFECTIOUS DISEASES” (INSERM (INSTITUT NATIONAL DE LA SANTÉ ET DE LA RECHERCHE …, priority 2022, published 2025).

How the values were obtained:
[1] = tested on: HDMEC infected with N. meningitidis 2C4.3; experiment: Caspase-3/7 apoptosis detection in infected HDMECs (IncuCyte); assay type: cell-based, human; details: Caspase-3/7 reagent, real time over 9 h, 1 μg/mL
Experimental: FIG. 1. Exogenous ANGPTL4 exerts protective effects on dermal microvascular endothelial cells infected by N. meningitidis. A. HDMECs were infected with Nm 2C4.3 for 30 min and treated with 1 μg/mL of recombinant human ANGPTL4 for 2 h 30. Cells were fixed and stained for cellular actin, VE-cadherin and DAPI and analyzed by fluorescent microscopy. Quantifications of VE-cadherin enrichment at intercellular junctions and of intercellular spaces area were performed on 30 fields with Image J software. Kruskal-Wallis test ** P<0.001; P<0.0001. B. HDMEC were either uninfected or infected with N. meningitidis 2C4.3 for 30 min and treated with 1 μg mL−1 of recombinant human ANGPTL4, its N-terminal portion (nANGPTL4) or its C-terminal portion (cANGPTL4) for 2 h 30. Caspase-3/7 reagent was added to detect apoptosis in real time over 9 h using the IncuCyte® Live-Cell Analysis System

[2] = tested on: HDMECs infected with N. meningitidis; experiment: Release of inflammatory cytokines and markers of vascular inflammation and endothelial alteration by infected HDMECs; assay type: cell-based, human; details: data not shown
Source text: (§1) In contrast to brain microvascular endothelial cells that resist to meningococcal infection, the integrity of dermal microvascular endothelial cell (HDMECs) monolayer was massively impaired upon infection, as observed with the loss of adherens junctions and cell detachment (data not shown). Since HDMEC poorly produces ANGPTL4 as compared to HBMEC (data not shown), we analysed whether the addition of recombinant human ANGPTL4 might exert a protective effect on these cells. […] Additionally, while infection was accompanied by the massive release of inflammatory cytokines (TNF-α, IL-6, IL-8), markers of vascular inflammation (E-selectin, ICAM-1, VCAM-1), and markers of endothelial cell alteration (Endoglin, Thrombomodulin), all these markers were reduced by 35 to 80% upon treatment with ANGPTL4 (data not shown).

[3] = tested on: HDMECs infected with Nm 2C4.3; experiment: Integrity of HDMEC monolayers infected with N. meningitidis (VE-cadherin at intercellular junctions, immunofluorescence); assay type: cell-based, human; details: uninfected HDMECs
[4] = tested on: SCID mice grafted with human skin infected with Nm 2C4.3; experiment: Outcome of meningococcal infection in SCID mice grafted with human skin (survival, with or without antibiotics); assay type: in vivo
Experimental: A-D, SCID mice grafted with human skin were infected intravenously with Nm 2C4.3 wild-type strain (5×10^6 bacteria); 2 h after bacterial challenge, mice received recombinant human ANGPTL4 (1 μg, intravenously), cefotaxime (200 mg kg-1, intraperitoneally) alone or in combination with ANGPTL4 or vehicle as a control. 18 h following bacterial challenge, ANGPTL4 (1 μg) and cefotaxime (200 mg kg-1) were re-administered. This experiment was performed twice with n=3 or 4 mice per group, using skin from two different donors. A, A schematic representation of the protocol used in vivo. B, Bacteraemia 4, 18, 48 and 72 h post-infection (mean±s.e.m.). C, Survival curve: * P=0.0275; two-sided log-rank Mantel-Cox survival analysis. D, Thrombosis within the skin grafts at 4 h post-infection was assessed by immunofluorescence analysis and quantified as described in FIG. 8 (error bars show mean±s.e.m.; 40 vessels per mouse were analysed; n=4 mice per group; *** P<0.001; two-tailed Student's t-test.
Six-week-old CB17/Icr-Prkdcscid female mice were obtained from Janvier Labs. Human skin tissues were obtained from adult patients undergoing plastic surgery in the Service de Chirurgie Plastique et Reconstructive of the Groupe Hospitalier Saint-Joseph. […] Experimental procedures were performed as previously described in accordance with the guidelines of the Institut National de la Santé et de la Recherche Médicale and conformed to the European ethical legislation (Directive 2010/63/EU). The experimental protocol was approved by the Animal Experimentation Ethics Committee of the Université Paris Descartes (consent forms CEEA34.O.J.L.039.12 and 2018012515596498). […] A skin flap was created and a full thickness human skin graft was placed onto the wound bed. The transplants were held in place with 6-0 non-absorbable monofilament suture materials, and the flap was then sutured above the transplant. Grafted mice were infected 4-6 weeks after human skin transplantation. N. meningitidis was grown overnight at 37° C. on GCB agar plates prepared without iron and supplemented with 15 μM deferoxamine (Desferal, Novartis). Bacterial colonies were harvested and cultured in RPMI media with 1% BSA medium and 0.06 μM deferoxamine with gentle agitation to reach the exponential phase of growth. Bacteria were then resuspended in physiological saline solution. Mice were infected intravenously with 200 μl (5×10^6 bacteria) of this bacterial suspension. A 10 mg dose of human holotransferrin (R&D Systems) was administered intraperitoneally just before infection. Mice were killed at 4 h after infection. Human skin grafts were carefully collected using a sterile cutter. The tissue was washed in PBS and fixed overnight at 4° C. in 4% paraformaldehyde in phosphate buffer. After washing in phosphate buffer, the specimens were embedded in OCT medium and then frozen at −80° C. Sections of the dermis (7 μm thick) were immobilized on Superfrost Plus microscope slides and subjected to immunofluorescence analysis. Sections were incubated with the primary antibodies for 1 h in PBS/3% BSA then DAPI was added to Alexa-conjugated secondary antibodies for 1 h. After additional washing, coverslips were mounted in glycergel (Dako) and were further analysed using a slide scanner (Lamina, Perkin Elmer). Analysis of the images was performed using ImageJ software (NIH). […]
We then analysed whether ANGPTL4 could provide a beneficial effect when administered with antibiotics.

[5] = tested on: HDMECs infected with S. pneumoniae TIGR4; experiment: Integrity of HDMECs infected with S. pneumoniae; assay type: cell-based, human; details: 1 μg/mL for 2 h after 30 min infection
Experimental: FIG. 6: ANGPTL4 protects dermal microvascular endothelial cells from infection by S. pneumoniae. HDMECs were infected with S. pneumoniae TIGR4 for 30 min and treated with 1 μg/mL of recombinant human ANGPTL4 for 2 h. Cells were fixed and stained for cellular actin, VE-cadherin and DAPI and analyzed by fluorescent microscopy. Quantifications of VE-cadherin enrichment at intercellular junctions was performed on 30 fields with Image J software. Kruskal-Wallis test *** P<0.0001.
To address whether ANGPTL-4 could also provide vascular protection from Gram-positive bacteria, we investigated the effect of ANGPTL-4 on HDMECs exposed to infection by the Gram-positive bacterium Streptococcus pneumoniae, one of the major causative agents of pneumonia, sepsis, meningitis and other morbidities.

[6] = tested on: Src kinase and VE-cadherin phosphorylation; experiment: Src kinase and VE-cadherin phosphorylation in infected HDMECs; assay type: cell-based, human; details: added 30 min after initiation of infection
Source text: as §1

B1: ANGPTL4: Recombinant human ANGPTL4 (Angiopoietin-like 4), full length, SEQ ID NO: 1, purchased from R&D Systems (protein, listed as Homo sapiens)
chain: MSGAPTAGAALMLCAATAVLLSAQGGPVQSKSPRFASWDEMNVLAHGLLQLGQGLREHAERTRSQLSALERRLSACGSACQGTEGSTDLPLAPESRVDPEVLHSLQTQLKAQNSRIQQLFHKVAQQQRHLEKQHLRIQHLQSQFGLLDHKHLDHEVAKPARRKRLPEMAQPVDPAHNVSRLHRLPRDCQELFQVGERQSGLFEIQPQGSPPFLVNCKMTSDGGWTVIQRRHDGSVDFNRPWEAYKAGFGDPHGEFWLGLEKVHSITGDRNSRLAVQLRDWDGNAELLQFSVHLGGEDTAYSLQLTAPVAGQLGATTVPPSGLSVPFSTWDQDHDLRRDKNCAKSLSGGWWFGTCSHSNLNGQYFRSIPQQRQKLKKGIFWKTWRGRYYPLQATTMLIQPMAAEAAS
- cell apoptosis induced by meningococcal infection [1]: inhibited cell apoptosis
- reduction of TNF-α, IL-6, IL-8, E-selectin, ICAM-1, VCAM-1, Endoglin, Thrombomodulin release [2]: 35 to 80%
- effect on organization of the adherens junctions formed by HDMECs [3]: no significant effect
- mice surviving the infection ([4]; 1 μg/mouse i.v., 2 h post-infection, all control mice died): 15%
- signs of thrombosis and vascular leakage in human dermal vessels of grafts ([4]; at the time of death, data not shown): reduced signs of thrombosis and vascular leakage
- endothelial integrity (cell junction organization) upon S. pneumoniae infection [5]: preserved endothelial integrity
- Src kinase and VE-cadherin phosphorylation [6]: significantly reduced
